Data on one substance can be found in patent US20230050449A1, “METHODS FOR TREATING CANCER USING A COMBINATION OF A PD-1 ANTAGONIST, AN ILT4 ANTAGONIST, AND CHEMOTHERAPEUTIC AGENTS” (Merck Sharp & Dohme LLC, priority 2019, published 2023).

The data set concerns participants with advanced solid tumors. The experiment in a line: Phase 1 open label, multi-arm, multi-center study of MK-4830 as monotherapy or in combination with pembrolizumab (NCT03564691): safety and tolerability. The format is in vivo, human. Here is the method:
A phase 1 open label, multi-arm, multi-center study of an anti-ILT4 antibody (“MK-4830”) as monotherapy or in combination with pembrolizumab for participants with advanced solid tumors has been ongoing (NCT03564691).
At the time of the May 10, 2019 data cutoff, a total of 51 participants had received at least 1 dose of MK-4830. In the ongoing MK-4830 monotherapy phase, MK-4830 monotherapy had reached the maximum planned dose level of 1600 mg. In the ongoing MK-4830 plus pembrolizumab combination phase, MK-4830 dose level had reached a maximum dose of 800 mg.
The target dose limiting toxicity (DLT) rate was not reached in any of the cohorts and the maximum tolerated dose (MTD) was not defined.
The most common study-drug related AEs in all participants were arthralgia (9.8%), fatigue (9.8%), decreased appetite (7.8%), diarrhea (7.8%), and pruritus (7.8%). There was one episode of transient Grade 3 blood pressure increase at the 1600 mg dose level in the MK-4830 monotherapy cohort. There were no Grade 4 or 5 drug-related AEs or SAEs.

Setting [1] is: of the total 51 treated participants, preliminary data.

With “MK-4830: anti-ILT4 antibody; light chain SEQ ID NO:5, heavy chain SEQ ID NO:10 (Table 4)”, the “episodes of transient Grade 3 blood pressure increase” value (1600 mg dose level, MK-4830 monotherapy cohort) was “one episode”. Also, the “grade of the majority of drug-related AEs” value (51 treated participants, preliminary data) is “Grade 1”. For the same substance, the “Grade 4 or 5 drug-related AEs or SAEs” value (all 51 treated participants) is on record as “no”. For the same substance, where the note is “all participants (51 treated)”, the “study-drug related AE: arthralgia” value is 9.8%, the “study-drug related AE: decreased appetite” value came to 7.8%, the “study-drug related AE: diarrhea” value was 7.8% and the “study-drug related AE: fatigue” value amounted to 9.8%. Where the note is “all participants (51 treated)”, the “study-drug related AE: pruritus” value stood at 7.8%. Besides, the “target dose limiting toxicity (DLT) rate” value (any of the cohorts, monotherapy up to 1600 mg, combination with pembrolizumab up to 800 mg, May 10, 2019 data cutoff) was “not reached”. Further, the “maximum tolerated dose (MTD)” value (monotherapy up to 1600 mg, combination with pembrolizumab up to 800 mg, May 10, 2019 data cutoff) is reported as “not defined”. For the same substance, under setting [1], the “participants with one or more drug-related AEs (number)” value is 26 and the “participants with one or more drug-related AEs (percent)” value worked out at 51%.
